# Test results taken from patent publication US7935785B2, “Selective substrates for matrix metalloproteinases” (Sanford-Burnham Medical Research Institute, priority 2001, dated 2011).
# B1: Eph B1-Fc fusion protein: extracellular domain of rat EphB1 (residues 1-538) fused to Fc region of human IgG, R&D Systems (protein)
# chain: MEETLMDTRTATAELGWTANPASGWEEVSGYDENLNTIRTYQVCNVFEPNQNNWLLTTFINRRGAHRIYTEMRFTVRDCSSLPNVPGSCKETFNLYYYETDSVIATKKSAFWSEAPYLKVDTIAADESFSQVDFGGRLMKVNTEVRSFGPLTRNGFYLAFQDYGACMSLLSVRVFFKKCPSIVQNFAVFPETMTGAESTSLVIARGTCIPNAEEVDVPIKLYCNGDGEWMVPIGRCTCKAGYEPENSVACKACPAGTFKASQEAEGCSHCPSNSRSPSEASPICTCRTGYYRADFDPPEVACTSVPSGPRNVISIVNETSIILEWHPPRETGGRDDVTYNIICKKCRADRRSCSRCDDNVEFVPRQLGLTECRVSISSLWAHTPYTFDIQAINGVSSKSPFPPQHVSVNITTNQAAPSTVPIMHQVSATMRSITLSWPQPEQPNGIILDYEIRYYEKEHNEFNSSMARSQTNTARIDGLRPGMVYVVQVRARTVAGYGKFSGKMCFQTLTDDDYKSELREQ
# modifications: left off: small tags and cut ends; a dimerising Fc or GST
# notes: extracellular domain of rat EphB1 (residues 1-538) fused to Fc region of human IgG, R&D Systems
# Experiments:
# Type in all cases: biochemical
# MMP-2 [1] = target: T1, MMP-2 (Homo sapiens, UniProt P08253); test: Peptide substrate hydrolysis kinetics, fluorescamine incorporation assay (kcat/Km, selectivity ratio); details: MMP-2 substrates
# T1 construct: the cDNA encoding the catalytic domain of MMP-2 was generated by PCR; made in house; host or cells: HEK 293 cells
# T1 sequence (P08253 110-465 limits assumed): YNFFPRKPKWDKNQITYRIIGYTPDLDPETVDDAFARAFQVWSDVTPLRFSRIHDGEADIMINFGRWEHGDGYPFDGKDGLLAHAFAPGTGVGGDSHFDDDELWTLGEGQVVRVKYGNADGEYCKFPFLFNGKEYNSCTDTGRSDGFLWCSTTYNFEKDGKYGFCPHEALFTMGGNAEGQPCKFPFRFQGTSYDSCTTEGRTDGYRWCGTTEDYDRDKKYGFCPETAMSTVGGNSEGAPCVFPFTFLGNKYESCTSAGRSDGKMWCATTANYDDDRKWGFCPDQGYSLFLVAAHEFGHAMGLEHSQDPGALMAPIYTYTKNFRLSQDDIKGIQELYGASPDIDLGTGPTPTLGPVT
# Experimental: (§1) In order to measure the selectivity of individual substrates for one metalloproteinase over another, representative polypeptides from the selected phage were synthesized and their rate of hydrolysis by several matrix metalloproteinases was determined. In some cases these representative polypeptide sequences contained an amino-terminal serine (S) and glycine (G) and/or a carboxyl-terminal threonine (T) and alanine (A) since these residues were used in the construction of the phage substrate library, although one skilled in the art will understand that other amino acid residues could be substituted at these positions. The kinetic parameters of substrate hydrolysis were measured using a fluorescamine incorporation assay that has been described previously (Ding et al., PNAS, 92:7627-7631 (1995); Coombs et al., Chem. and Biol. 5:475-488 (1998); Fields et al., J. Biol. Chem., 262:6221-6226 (1987); Netzel-Arnett., et al. J. Biol. Chem., 266:6747-6755 (1991)).
# (§2) Briefly, individual metalloproteinases were incubated with the individual polypeptide substrates at concentrations ranging from 100-800 µM. At selected time points the reactions were stopped by the addition of 1,10 phenanthroline. Polypeptide hydrolysis was determined by the addition of fluorescamine followed by detection at an excitation wavelength of 355 nm and an emission wavelength of 460 nm. The data were transformed to double reciprocal plots (1/[S] vs 1/vi) to determine Km and kcat. In some cases Km and kcat could not be determined individually, but the specificity constant, kcat/Km, was derived by the equation: […] (Netzel-Arnett, supra, and Zumla et al., J. Immunol. Methods 149:69-76 (1992)).
# (§3) The selectivity ratio of each polypeptide substrate was calculated by dividing the kcat/Km value for one matrix metalloproteinase by the kcat/Km value for the other matrix metalloproteinases that were tested. […] In many cases the polypeptide substrates are selective for one matrix metalloproteinase compared to several other matrix metalloproteinases.
# (§4) The kinetic parameters of substrate hydrolysis were measured using a fluorescamine incorporation assay that has been previously described (Ding et al., PNAS, 92:7627-7631 (1995); Coombs et al., Chem. and Biol. 5:475-488 (1998); Fields et al., J. Biol. Chem., 262:6221-6226 (1987); Netzel-Arnett., et al. J. Biol. Chem., 266:6747-6755 (1991)). Briefly, MMP-2, MMP-9, MMP-7, or MMP-13 were incubated with individual peptide substrates at concentrations ranging from 100-800 μM in 50 mM Tris, pH 7.5, 100 mM NaCl, 10 mM CaCl2, 50 μM ZnCl2. At selected time points the reactions were stopped by the addition of 1,10-phenanthroline. Peptide hydrolysis was determined by the addition of fluorescamine followed by detection at λex 355 nm and λem 460 nm. The data were transformed to double reciprocal plots (1/[S] vs 1/vj) to determine Km and kcat. […] A double recipricol plot of the hydrolysis of peptide B 74 is shown as a representative plot (FIG. 4).
# MT1-MMP = MT1-MMP (Homo sapiens, UniProt P50281); test: Peptide substrate hydrolysis kinetics, selectivity between MT1-MMP and MMP-9; details: MT1-MMP substrates
# Experimental: as §1, §2, §3
# Polypeptide substrates for Membrane type-Matrix Metalloproteinase 1 (MT1-MMP) were identified using substrate phage display as described for MMP-2 and MMP-9. Synthetic peptides that are analogous to the phage sequences were used to quantitate the level of selectivity between MT1-MMP and MMP-9 (see Table II).
# MMP-9 [2] = target: T2, MMP-9 (Homo sapiens, UniProt P14780); test: Peptide substrate hydrolysis kinetics, fluorescamine incorporation assay (kcat, Km, kcat/Km, selectivity ratio); details: for selectivity ratio: kcat/Km for MMP-9 divided by kcat/Km for MMP-1 / selectivity ratio: kcat/Km for MMP-9 divided by kcat/Km for MMP-7: MMP-9 substrates
# T2 construct: a recombinant form of the catalytic domain of MMP-9 expressed in HEK 293 cells; made in house; host or cells: HEK 293 cells
# T2 sequence (P14780 94-444 limits assumed): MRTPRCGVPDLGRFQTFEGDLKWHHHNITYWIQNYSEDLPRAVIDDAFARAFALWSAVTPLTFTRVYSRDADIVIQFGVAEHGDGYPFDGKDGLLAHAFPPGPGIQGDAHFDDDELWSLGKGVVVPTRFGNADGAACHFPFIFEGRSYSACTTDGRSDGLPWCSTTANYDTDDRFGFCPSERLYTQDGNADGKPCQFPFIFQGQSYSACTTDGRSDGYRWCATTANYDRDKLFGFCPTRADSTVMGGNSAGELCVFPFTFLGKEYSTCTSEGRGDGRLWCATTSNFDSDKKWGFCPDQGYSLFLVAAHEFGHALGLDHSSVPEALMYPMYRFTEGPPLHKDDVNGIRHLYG
# Experimental: as §1, §2, §3, §4
# The Michaelis constant (Km) and first-order rate constant of substrate peptide turnover (kcat) were measured by incubating a range of each peptide with MMP-9. Peptide hydrolysis was measured by incorporation of fluorescamine onto newly formed amino-termini as previously described. From these measurements, kcat and Km were derived for each peptide using double-reciprocal plots of 1/[S] vs 1/vj. Among the peptides, the kcat values ranged from 9 s^−1 to 703 and Km values were generally in the high micromolar to low millimolar range.
# MMP-2 [3] = target: T1, MMP-2; test: Cleavage of recombinant Eph receptor-Fc fusion proteins, SDS-PAGE; details: 1.8 μM fusion protein, 280 nM MMP-2, 4 hours, 37° C.
# Experimental: (§5) Recombinant fusion proteins between EphB1, EphB2 and the Fc domain of IgG were purchased from R&D Systems Inc. In these constructs, the extracellular domain of rat EphB1 (amino acid residues 1-538) and mouse EphB2 (amino acid residues 1-548) are fused to the Fc region of human IgG via a short polypeptide linker. The fusion proteins (1.8 μM) were incubated for 4 hours at 37° C. with 280 nM of either MMP-2 or MMP-9. Following incubation, samples were resolved by 10% SDS-PAGE, and samples were visualized by Coomassie staining. The N-terminus of the cleaved Eph B1 was determined by automated Edman degradation of protein blotted to PVDF membranes.
# (§6) The Eph B1 and Eph B2 fusion proteins were incubated with equimolar amounts (280 nM) of MMP-2 and MMP-9 for four hours. The extent of hydrolysis was gauged by SDS-PAGE (FIG. 3). […] The extent of cleavage by MMP-9 was far lower (lane 3). […] The site of hydrolysis within Eph B1 was determined by sequencing the N-terminus of one of the released fragments. […] This is one of the predicted cleavage sites in EphB1. These findings illustrate that motifs found to be selective for MMP-2 by substrate phage display, can act as selective substrates within the context of whole proteins. This experiment also illustrates that the three dimensional conformation of the putative cleavage site will also control the extent of hydrolysis.
# MMP-9 [4] = target: T2, MMP-9; test: as above; details: 1.8 μM fusion protein, 280 nM MMP-9, 4 hours, 37° C.
# Experimental: as §5, §6
# [5] = hydrolysis by MMP-9, Ala instead of Leu at P1′
Molecule,selectivity ratio: kcat/Km for MMP-2 divided by kcat/Km for MMP-1 (MMP-2 [1]),selectivity ratio: kcat/Km for MMP-2 divided by kcat/Km for MMP-7 (MMP-2 [1]),selectivity ratio: kcat/Km for MMP-2 divided by kcat/Km for MMP-9 (MMP-2 [1]),other results
"B37: MMP-2 selective substrate peptide from phage clone B37, sequence A-N-I-S-D-L-T-A (ANISDLTA)",58,17,71,–
"B149: MT1-MMP selective substrate peptide from phage clone B149, sequence S-G-A-R-Y-R-W-L-T-A (Table V) (ARYRWLTA)",–,–,–,selectivity ratio: kcat/Km for MT1-MMP divided by kcat/Km for MMP-9 (MT1-MMP): 3
"A176: MT1-MMP selective substrate peptide from phage clone A176, sequence S-G-R-S-E-N-I-R-T-A (Table V) (RSENIRT)",–,–,–,selectivity ratio: kcat/Km for MT1-MMP divided by kcat/Km for MMP-9 (MT1-MMP): 73
"C15: MMP-9 selective substrate peptide from phage clone C15, sequence S-G-K-G-P-R-Q-I-T-A (Table V) (KGPRQITA)",–,–,–,selectivity ratio: kcat/Km for MMP-9 divided by kcat/Km for MMP-1 (MMP-9 [2]): 12; selectivity ratio: kcat/Km for MMP-9 divided by kcat/Km for MMP-7 (MMP-9 [2]): 14
"C9: MMP-2 selective substrate peptide from phage clone C9, sequence R-S-L-S-R-L-T-A (RSLSRLTA)",52,35,198,–
"A34: MMP-2 selective substrate peptide from phage clone A34, sequence N-R-Y-S-S-L-T-A (NRYSSLTA)",24,84,40,–
"B175: MT1-MMP selective substrate peptide from phage clone B175, sequence S-G-R-A-M-H-M-Y-T-A (Table V) (RAMHMYT)",–,–,–,selectivity ratio: kcat/Km for MT1-MMP divided by kcat/Km for MMP-9 (MT1-MMP): 19
"A21: MMP-2 selective substrate peptide from phage clone A21, sequence H-M-H-K-A-L-T-A (HMHKALTA)",–,–,8,–
"A42: MT1-MMP selective substrate peptide from phage clone A42, sequence S-G-R-I-G-F-L-R-T-A (Table V) (RIGFLRT)",–,–,–,selectivity ratio: kcat/Km for MT1-MMP divided by kcat/Km for MMP-9 (MT1-MMP): 54
"A11: MMP-9 selective substrate peptide from phage clone A11, sequence S-G-K-I-P-R-T-L-T-A (Table V) (KIPRTLTA)",–,–,–,selectivity ratio: kcat/Km for MMP-9 divided by kcat/Km for MMP-1 (MMP-9 [2]): 3; selectivity ratio: kcat/Km for MMP-9 divided by kcat/Km for MMP-7 (MMP-9 [2]): 10
"A3: MMP-2 selective substrate peptide from phage clone A3, sequence A-K-P-R-A-L-T-A (AKPRALTA)",14,21,2,–
AC-SGKIPRTATA-NH2 (Ac-SGKIPRTATA-NH2) [Clone A11m2],–,–,–,"kcat/Km ratio (MMP-9 [2]; hydrolysis by MMP-9): 2,000 M^−1s^−1; effect of substitution on kcat and Km (MMP-9 [2]; [5]): deleterious effects on both kcat and Km; reduction of kcat/Km ratio relative to peptide A11 (MMP-9 [2]; [5]): ~30 fold"
"A6: MMP-9 selective substrate peptide from phage clone A6, sequence S-G-P-R-A-V-S-T-T-A (Table V) (PRAVST)",–,–,–,selectivity ratio: kcat/Km for MMP-9 divided by kcat/Km for MMP-1 (MMP-9 [2]): 5; selectivity ratio: kcat/Km for MMP-9 divided by kcat/Km for MMP-7 (MMP-9 [2]): 47
"B49: MMP-2 selective substrate peptide from phage clone B49, sequence L-R-L-A-A-I-T-A (LRLAAITA)",13,6,14,–
"B74: MMP-2 selective substrate peptide from phage clone B74, sequence E-S-L-A-Y-Y-T-A (ESLAYYTA)",140,354,108,–
"B96: MT1-MMP selective substrate peptide from phage clone B96, sequence S-G-L-I-S-H-S-I-T-A (Table V) (LISHSITA)",–,–,–,selectivity ratio: kcat/Km for MT1-MMP divided by kcat/Km for MMP-9 (MT1-MMP): 5
"A13: MMP-2 selective substrate peptide from phage clone A13, sequence G-A-V-S-W-L-L-T (GAVSWLLT)",28,13,15,–
B1,–,–,–,extent of hydrolysis by MMP-2 (SDS-PAGE) (MMP-2 [3]): almost quantitatively cleaved; extent of hydrolysis by MMP-9 (SDS-PAGE) (MMP-9 [4]): far lower
